From paper doi:10.64898/2025.12.03.691989 (bioRxiv, 2025) come the findings set out here.

One experiment deals with T1, human UBA1 (human, UniProt P22314 1-1058).
T1 sequence (looked up): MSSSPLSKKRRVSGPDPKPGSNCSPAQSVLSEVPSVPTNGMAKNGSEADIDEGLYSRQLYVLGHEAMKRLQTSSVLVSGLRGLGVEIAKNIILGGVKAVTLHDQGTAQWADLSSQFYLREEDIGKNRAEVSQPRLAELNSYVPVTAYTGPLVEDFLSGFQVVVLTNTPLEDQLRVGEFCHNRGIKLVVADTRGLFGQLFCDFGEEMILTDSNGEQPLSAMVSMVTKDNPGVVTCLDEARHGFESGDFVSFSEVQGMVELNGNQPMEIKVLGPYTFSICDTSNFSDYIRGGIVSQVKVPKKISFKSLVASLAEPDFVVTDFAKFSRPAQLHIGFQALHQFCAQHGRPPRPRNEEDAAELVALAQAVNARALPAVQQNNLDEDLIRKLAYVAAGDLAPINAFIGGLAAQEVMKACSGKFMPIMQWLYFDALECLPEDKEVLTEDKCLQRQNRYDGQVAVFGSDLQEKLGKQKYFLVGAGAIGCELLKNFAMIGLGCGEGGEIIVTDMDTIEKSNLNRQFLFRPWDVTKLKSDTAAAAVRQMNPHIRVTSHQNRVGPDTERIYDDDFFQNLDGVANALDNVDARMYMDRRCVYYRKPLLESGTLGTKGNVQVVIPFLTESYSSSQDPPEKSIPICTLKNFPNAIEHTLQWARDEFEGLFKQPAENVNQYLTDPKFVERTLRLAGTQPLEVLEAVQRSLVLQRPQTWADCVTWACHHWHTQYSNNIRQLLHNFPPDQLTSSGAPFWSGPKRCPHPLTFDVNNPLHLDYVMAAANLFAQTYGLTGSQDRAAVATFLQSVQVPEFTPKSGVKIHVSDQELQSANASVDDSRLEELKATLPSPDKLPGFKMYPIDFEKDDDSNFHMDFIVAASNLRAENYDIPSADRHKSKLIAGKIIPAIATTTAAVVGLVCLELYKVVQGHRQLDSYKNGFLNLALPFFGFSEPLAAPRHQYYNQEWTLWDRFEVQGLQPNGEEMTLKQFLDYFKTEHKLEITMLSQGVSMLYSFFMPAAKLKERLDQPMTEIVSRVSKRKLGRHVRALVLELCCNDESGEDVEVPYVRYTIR
As to the kind of experiment: MST.

Experiment [1] concerns the target T2, human UBA6 (full-length, amino acid residues 1-1052) (human, UniProt A0AVT1 1-1052).
T2 sequence (looked up): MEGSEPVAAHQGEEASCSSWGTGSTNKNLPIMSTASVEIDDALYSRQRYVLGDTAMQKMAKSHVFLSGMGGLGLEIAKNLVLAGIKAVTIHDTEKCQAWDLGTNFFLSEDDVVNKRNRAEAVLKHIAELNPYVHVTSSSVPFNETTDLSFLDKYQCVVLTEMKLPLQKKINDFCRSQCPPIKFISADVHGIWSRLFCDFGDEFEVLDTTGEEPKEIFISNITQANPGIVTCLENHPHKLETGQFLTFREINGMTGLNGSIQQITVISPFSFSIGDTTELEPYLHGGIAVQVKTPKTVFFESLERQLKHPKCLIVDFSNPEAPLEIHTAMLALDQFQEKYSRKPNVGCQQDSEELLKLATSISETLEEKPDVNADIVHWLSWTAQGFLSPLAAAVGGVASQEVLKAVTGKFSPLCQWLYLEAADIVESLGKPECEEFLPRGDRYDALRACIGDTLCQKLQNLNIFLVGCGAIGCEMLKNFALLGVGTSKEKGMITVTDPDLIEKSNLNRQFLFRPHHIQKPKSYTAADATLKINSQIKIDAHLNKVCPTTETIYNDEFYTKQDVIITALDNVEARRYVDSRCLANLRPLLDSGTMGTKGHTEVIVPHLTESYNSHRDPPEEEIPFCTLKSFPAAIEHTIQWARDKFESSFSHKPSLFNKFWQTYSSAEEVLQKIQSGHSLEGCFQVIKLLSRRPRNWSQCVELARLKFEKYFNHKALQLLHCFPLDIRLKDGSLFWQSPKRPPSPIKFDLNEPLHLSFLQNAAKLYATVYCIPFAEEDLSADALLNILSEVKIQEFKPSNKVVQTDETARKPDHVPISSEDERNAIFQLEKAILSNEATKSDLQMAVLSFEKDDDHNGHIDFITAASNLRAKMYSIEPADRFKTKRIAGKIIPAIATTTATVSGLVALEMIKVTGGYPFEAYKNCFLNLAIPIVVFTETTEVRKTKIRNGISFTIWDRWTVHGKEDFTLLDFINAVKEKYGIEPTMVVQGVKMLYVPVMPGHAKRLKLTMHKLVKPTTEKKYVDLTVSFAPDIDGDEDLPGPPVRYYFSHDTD
As to the kind of experiment: MST.

B1: BIRC6 UBC domain (amino acid residues 4520-4857) (domain or fragment)
chain: not shown
B1: the Kd – broadly, the concentration at which binding is half-saturated – with human UBA1 was 13 µM; in experiment [1] it was 23 µM.
